Results as given in paper PMC11563578 (eLife, 2024).
Blank lines part the entries; values can stand above or below the binder they belong to.

Biological target: T1, RNA polymerase II subunit Rpb1 (S. cerevisiae, UniProt P04050 1-1733)
T1 construct: Rpb1, largest subunit of yeast RNA polymerase II; source: endogenous, S. cerevisiae; also the Δrpb4 RPB2-HFH strain
Experiment: cross-linking; affinity-purified holo-pol II and ΔRpb4 pol II cross-linked with C1q2/C2q2 Q2linkers in a crosslinker swapping experiment (experiments I and II), pooled, MS; crosslinks identified with pLink2 and Nexus against the 12 pol II subunits
Conditions: both partners purified

T1 sequence (P04050 whole entry): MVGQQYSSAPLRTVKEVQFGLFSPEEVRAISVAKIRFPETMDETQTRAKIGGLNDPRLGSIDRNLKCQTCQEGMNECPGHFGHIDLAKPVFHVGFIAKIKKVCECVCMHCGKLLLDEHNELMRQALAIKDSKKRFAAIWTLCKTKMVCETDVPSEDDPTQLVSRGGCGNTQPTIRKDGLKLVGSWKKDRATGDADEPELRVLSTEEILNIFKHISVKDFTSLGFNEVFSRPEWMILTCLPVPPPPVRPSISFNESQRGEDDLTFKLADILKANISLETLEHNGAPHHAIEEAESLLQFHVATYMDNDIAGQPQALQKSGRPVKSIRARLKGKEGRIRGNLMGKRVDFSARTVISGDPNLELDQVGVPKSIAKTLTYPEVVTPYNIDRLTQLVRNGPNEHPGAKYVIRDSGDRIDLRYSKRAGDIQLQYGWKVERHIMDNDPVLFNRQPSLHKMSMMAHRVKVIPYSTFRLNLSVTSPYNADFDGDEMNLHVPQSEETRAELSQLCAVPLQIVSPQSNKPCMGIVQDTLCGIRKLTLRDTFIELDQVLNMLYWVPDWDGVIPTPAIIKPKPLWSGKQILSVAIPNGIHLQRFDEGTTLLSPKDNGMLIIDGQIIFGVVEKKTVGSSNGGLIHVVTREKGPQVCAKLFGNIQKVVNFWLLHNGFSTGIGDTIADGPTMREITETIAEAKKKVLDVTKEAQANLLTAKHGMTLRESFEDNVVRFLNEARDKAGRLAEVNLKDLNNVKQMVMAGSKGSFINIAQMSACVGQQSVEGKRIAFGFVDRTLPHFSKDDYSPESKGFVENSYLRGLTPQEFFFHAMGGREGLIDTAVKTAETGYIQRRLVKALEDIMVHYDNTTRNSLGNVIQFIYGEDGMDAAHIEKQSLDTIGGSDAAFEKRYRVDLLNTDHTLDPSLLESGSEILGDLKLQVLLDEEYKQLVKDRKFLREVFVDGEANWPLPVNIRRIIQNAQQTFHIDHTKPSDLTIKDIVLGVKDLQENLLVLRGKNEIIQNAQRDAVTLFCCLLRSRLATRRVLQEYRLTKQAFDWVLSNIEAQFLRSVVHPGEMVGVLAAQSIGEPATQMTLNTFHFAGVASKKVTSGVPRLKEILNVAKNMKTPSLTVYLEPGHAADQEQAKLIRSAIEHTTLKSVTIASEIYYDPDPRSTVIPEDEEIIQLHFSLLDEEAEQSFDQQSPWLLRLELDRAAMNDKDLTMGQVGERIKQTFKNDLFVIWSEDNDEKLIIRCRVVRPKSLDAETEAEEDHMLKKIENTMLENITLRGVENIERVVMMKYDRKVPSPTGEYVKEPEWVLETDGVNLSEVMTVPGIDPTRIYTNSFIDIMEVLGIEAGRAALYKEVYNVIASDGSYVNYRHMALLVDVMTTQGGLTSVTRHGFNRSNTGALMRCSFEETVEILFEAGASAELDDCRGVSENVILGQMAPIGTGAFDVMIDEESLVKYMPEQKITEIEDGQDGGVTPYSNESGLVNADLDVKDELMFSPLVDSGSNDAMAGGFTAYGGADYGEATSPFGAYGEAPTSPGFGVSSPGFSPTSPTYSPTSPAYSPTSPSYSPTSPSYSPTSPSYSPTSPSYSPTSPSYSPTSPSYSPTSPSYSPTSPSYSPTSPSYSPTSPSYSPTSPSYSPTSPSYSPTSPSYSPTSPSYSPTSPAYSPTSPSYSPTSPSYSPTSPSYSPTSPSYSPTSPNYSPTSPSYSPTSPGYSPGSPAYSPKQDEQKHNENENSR

binding result: binds
B1: RNA polymerase II subunit Rpb9 (natural protein, S. cerevisiae, UniProt P27999 1-122, looked up)
chain: MTTFRFCRDCNNMLYPREDKENNRLLFECRTCSYVEEAGSPLVYRHELITNIGETAGVVQDIGSDPTLPRSDRECPKCHSRENVFFQSQQRRKDTSMVLFFVCLSCSHIFTSDQKNKRTQFS
notes: Rpb9, subunit of yeast RNA polymerase II; source: endogenous, S. cerevisiae; also the Δrpb4 RPB2-HFH strain

binding result: binds
B2: RNA polymerase II subunit Rpb7 (natural protein, S. cerevisiae, UniProt P34087 1-171, looked up)
chain: MFFIKDLSLNITLHPSFFGPRMKQYLKTKLLEEVEGSCTGKFGYILCVLDYDNIDIQRGRILPTDGSAEFNVKYRAVVFKPFKGEVVDGTVVSCSQHGFEVQVGPMKVFVTKHLMPQDLTFNAGSNPPSYQSSEDVITIKSRIRVKIEGCISQVSSIHAIGSIKEDYLGAI
notes: Rpb7, subunit of yeast RNA polymerase II; also called Rbp7; source: endogenous, S. cerevisiae; sub-stoichiometric from the Δrpb4 RPB2-HFH strain
